Reference: patent US10858688 (KYOTO UNIVERSITY, dated 2020)
Where no end group is shown, it is not given here. Atto 488 = fluorescent body linked to the N terminus

Target: T1, actin filament in fixed Xenopus laevis XTC cells (Xenopus laevis)
T1 construct: whole, on cells; Polymer of actin in fixed cells
Assay: speckle lifetime distribution in fixed XTC cells, 10 ms/frame at 100 Hz, single exponential fit (FIG. 9a)

half-life: 0.023 s
B1: Lifeact peptide (sequence number 19) with an Atto 488 fluorescent body linked to an N terminus (peptide)
peptide: {Atto 488}-MGVADLIKKFESISKEE
notes: Purchased from Sigma-Aldrich; also called Atto488-Lifeact; Atto 488-Lifeact
